Tested on: chimeric Caspase-9 polypeptide
Experiment: Caspase-9 mutant classes and basal activity (Table 5)
Format: cell-based
Settings: Caspase-9 mutant class; for Basal Activity: basal (ligand-independent) signaling compared with unmodified chimeric Caspase-9; for IC50: ligand IC50 compared with unmodified chimeric Caspase-9
Description: Even though homo-dimerization of wild-type initiator Caspase-9 is energetically unfavorable, making them mostly monomers in solution [14-16], the low-level inherent basal activity of unprocessed Caspase-9 [15, 17] is enhanced in the presence of the Apaf-1-based “apoptosome”, its natural allosteric regulator [6]. Moreover, supra-physiological expression levels and/or co-localization could lead to proximity-driven dimerization, further enhancing basal activation. The modified cells of the present application may comprise nucleic acids coding for a chimeric Caspase-9 polypeptide having lower basal signaling activity. Polynucleotides comprising Caspase-9 mutants with lower basal signaling may be expressed in the modified cells used for cell therapy herein. In these examples, the modified cells may include a safety switch, comprising a polynucleotide encoding a lower basal signaling chimeric Caspase-9 polypeptide. In the event of an adverse event following administration of the modified cells comprising the chimeric signaling polypeptides or chimeric antigen receptors herein, Caspase-9 activity may be induced by administering the dimerizer to the patient, thus inducing apoptosis and clearance of some, or all of the modified cells. In some examples, the amount of dimerizer administered may be determined as an amount designed to remove the highest amount, at least 80% or 90% of the modified cells. In other examples, the amount of dimerizer administered may be determined as an amount designed to remove only a portion of the modified cells, in order to alleviate negative symptoms or conditions, while leaving a sufficient amount of therapeutic modified cells in the patient, in order to continue therapy. Methods for using chimeric Caspase-9 polypeptides to induce apoptosis are discussed in PCT Application Number PCT/US2011/037381 by Malcolm K. Brenner et al., titled Methods for Inducing Selective Apoptosis, filed May 20, 2011, and in U.S. patent application Ser. No. 13/112,739 by Malcolm K. Brenner et al., titled Methods for Inducing Selective Apoptosis, filed May 20, 2011, issued Jul. 28, 2015 as U.S. Pat. No. 9,089,520. Chimeric caspase polypeptides having modified basal activity are discussed in PCT Application Serial Number PCT/US2014/022004 by David Spencer et al., titled Modified Caspase Polypeptides and Uses Thereof, filed Mar. 7, 2014, published Oct. 9, 2014 as WO2014/164348, and in U.S. patent application Ser. No. 13/792,135 by David Spencer et al., titled Modified Caspase Polypeptides and Uses Thereof, filed Mar. 7, 2014; and in U.S. patent application Ser. No. 14/640,553 by Spencer et al., filed Mar. 6, 2015. Methods for inducing partial apoptosis of the therapeutic modified cells are discussed in PCT Application Number PCT/US14/040964 by Kevin Slawin et al., titled Methods for Inducing Partial Apoptosis Using Caspase Polypeptides, filed Jun. 4, 2014, published Dec. 11, 2014 as WO2014/197638, and in U.S. patent application Ser. No. 14/296,404 by Kevin Slawin et al., titled Methods for Inducing Partial Apoptosis Using Caspase Polypeptides, filed Jun. 4, 2014. These patent applications and publications are all incorporated by reference herein in their entireties.

Chain of chimeric Caspase-9 polypeptide (P62942 2-108 F37V limits assumed): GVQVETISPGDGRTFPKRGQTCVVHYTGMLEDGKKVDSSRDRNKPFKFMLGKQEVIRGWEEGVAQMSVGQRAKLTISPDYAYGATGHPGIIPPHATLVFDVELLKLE

Molecule	Basal Activity	IC50
D330A (protein) GFGDVGALESLRGNADLAYILSMEPCGHCLIINNVNFCRESGLRTRTGSNIDCEKLRRRFSSLHFMVEVKGDLTAKKMVLALLELARQDHGALDCCVVVILSHGCQASHLQFPGAVYGTDGCPVSVEKIVNIFNGTSCPSLGGKPKLFFIQACGGEQKDHGFEVASTSPEDESPGSNPEPDATPFQEGLRTFDQLAAISSLPTPSDIFVSYSTFPGFVSWRDPKSGSWYVETLDDIFEQWAHSEDLQSLLLRVANAVSVKGIYKQMPGCFNFLRKKLFFKTSASRA	Decreased	higher IC50
F404W (protein) GFGDVGALESLRGNADLAYILSMEPCGHCLIINNVNFCRESGLRTRTGSNIDCEKLRRRFSSLHFMVEVKGDLTAKKMVLALLELARQDHGALDCCVVVILSHGCQASHLQFPGAVYGTDGCPVSVEKIVNIFNGTSCPSLGGKPKLFFIQACGGEQKDHGFEVASTSPEDESPGSNPEPDATPFQEGLRTFDQLDAISSLPTPSDIFVSYSTFPGFVSWRDPKSGSWYVETLDDIFEQWAHSEDLQSLLLRVANAVSVKGIYKQMPGCWNFLRKKLFFKTSASRA	Decreased	much higher
Y153F (protein) GFGDVGALESLRGNADLAFILSMEPCGHCLIINNVNFCRESGLRTRTGSNIDCEKLRRRFSSLHFMVEVKGDLTAKKMVLALLELARQDHGALDCCVVVILSHGCQASHLQFPGAVYGTDGCPVSVEKIVNIFNGTSCPSLGGKPKLFFIQACGGEQKDHGFEVASTSPEDESPGSNPEPDATPFQEGLRTFDQLDAISSLPTPSDIFVSYSTFPGFVSWRDPKSGSWYVETLDDIFEQWAHSEDLQSLLLRVANAVSVKGIYKQMPGCFNFLRKKLFFKTSASRA	Decreased	much higher
D330E (protein) GFGDVGALESLRGNADLAYILSMEPCGHCLIINNVNFCRESGLRTRTGSNIDCEKLRRRFSSLHFMVEVKGDLTAKKMVLALLELARQDHGALDCCVVVILSHGCQASHLQFPGAVYGTDGCPVSVEKIVNIFNGTSCPSLGGKPKLFFIQACGGEQKDHGFEVASTSPEDESPGSNPEPDATPFQEGLRTFDQLEAISSLPTPSDIFVSYSTFPGFVSWRDPKSGSWYVETLDDIFEQWAHSEDLQSLLLRVANAVSVKGIYKQMPGCFNFLRKKLFFKTSASRA	Decreased	higher IC50
F404T (protein) GFGDVGALESLRGNADLAYILSMEPCGHCLIINNVNFCRESGLRTRTGSNIDCEKLRRRFSSLHFMVEVKGDLTAKKMVLALLELARQDHGALDCCVVVILSHGCQASHLQFPGAVYGTDGCPVSVEKIVNIFNGTSCPSLGGKPKLFFIQACGGEQKDHGFEVASTSPEDESPGSNPEPDATPFQEGLRTFDQLDAISSLPTPSDIFVSYSTFPGFVSWRDPKSGSWYVETLDDIFEQWAHSEDLQSLLLRVANAVSVKGIYKQMPGCTNFLRKKLFFKTSASRA	Decreased	much higher
Y153A (protein) GFGDVGALESLRGNADLAAILSMEPCGHCLIINNVNFCRESGLRTRTGSNIDCEKLRRRFSSLHFMVEVKGDLTAKKMVLALLELARQDHGALDCCVVVILSHGCQASHLQFPGAVYGTDGCPVSVEKIVNIFNGTSCPSLGGKPKLFFIQACGGEQKDHGFEVASTSPEDESPGSNPEPDATPFQEGLRTFDQLDAISSLPTPSDIFVSYSTFPGFVSWRDPKSGSWYVETLDDIFEQWAHSEDLQSLLLRVANAVSVKGIYKQMPGCFNFLRKKLFFKTSASRA	Decreased	much higher
S307A (protein) GFGDVGALESLRGNADLAYILSMEPCGHCLIINNVNFCRESGLRTRTGSNIDCEKLRRRFSSLHFMVEVKGDLTAKKMVLALLELARQDHGALDCCVVVILSHGCQASHLQFPGAVYGTDGCPVSVEKIVNIFNGTSCPSLGGKPKLFFIQACGGEQKDHGFEVASTSPEDEAPGSNPEPDATPFQEGLRTFDQLDAISSLPTPSDIFVSYSTFPGFVSWRDPKSGSWYVETLDDIFEQWAHSEDLQSLLLRVANAVSVKGIYKQMPGCFNFLRKKLFFKTSASRA	Decreased	much higher
F319W (protein) GFGDVGALESLRGNADLAYILSMEPCGHCLIINNVNFCRESGLRTRTGSNIDCEKLRRRFSSLHFMVEVKGDLTAKKMVLALLELARQDHGALDCCVVVILSHGCQASHLQFPGAVYGTDGCPVSVEKIVNIFNGTSCPSLGGKPKLFFIQACGGEQKDHGFEVASTSPEDESPGSNPEPDATPWQEGLRTFDQLDAISSLPTPSDIFVSYSTFPGFVSWRDPKSGSWYVETLDDIFEQWAHSEDLQSLLLRVANAVSVKGIYKQMPGCFNFLRKKLFFKTSASRA	Decreased	much higher
D315A (protein) GFGDVGALESLRGNADLAYILSMEPCGHCLIINNVNFCRESGLRTRTGSNIDCEKLRRRFSSLHFMVEVKGDLTAKKMVLALLELARQDHGALDCCVVVILSHGCQASHLQFPGAVYGTDGCPVSVEKIVNIFNGTSCPSLGGKPKLFFIQACGGEQKDHGFEVASTSPEDESPGSNPEPAATPFQEGLRTFDQLDAISSLPTPSDIFVSYSTFPGFVSWRDPKSGSWYVETLDDIFEQWAHSEDLQSLLLRVANAVSVKGIYKQMPGCFNFLRKKLFFKTSASRA	Decreased	much higher
A316G (protein) GFGDVGALESLRGNADLAYILSMEPCGHCLIINNVNFCRESGLRTRTGSNIDCEKLRRRFSSLHFMVEVKGDLTAKKMVLALLELARQDHGALDCCVVVILSHGCQASHLQFPGAVYGTDGCPVSVEKIVNIFNGTSCPSLGGKPKLFFIQACGGEQKDHGFEVASTSPEDESPGSNPEPDGTPFQEGLRTFDQLDAISSLPTPSDIFVSYSTFPGFVSWRDPKSGSWYVETLDDIFEQWAHSEDLQSLLLRVANAVSVKGIYKQMPGCFNFLRKKLFFKTSASRA	Decreased	much higher
C403A (protein) GFGDVGALESLRGNADLAYILSMEPCGHCLIINNVNFCRESGLRTRTGSNIDCEKLRRRFSSLHFMVEVKGDLTAKKMVLALLELARQDHGALDCCVVVILSHGCQASHLQFPGAVYGTDGCPVSVEKIVNIFNGTSCPSLGGKPKLFFIQACGGEQKDHGFEVASTSPEDESPGSNPEPDATPFQEGLRTFDQLDAISSLPTPSDIFVSYSTFPGFVSWRDPKSGSWYVETLDDIFEQWAHSEDLQSLLLRVANAVSVKGIYKQMPGAFNFLRKKLFFKTSASRA	Similar	Similar
N405F (protein) GFGDVGALESLRGNADLAYILSMEPCGHCLIINNVNFCRESGLRTRTGSNIDCEKLRRRFSSLHFMVEVKGDLTAKKMVLALLELARQDHGALDCCVVVILSHGCQASHLQFPGAVYGTDGCPVSVEKIVNIFNGTSCPSLGGKPKLFFIQACGGEQKDHGFEVASTSPEDESPGSNPEPDATPFQEGLRTFDQLDAISSLPTPSDIFVSYSTFPGFVSWRDPKSGSWYVETLDDIFEQWAHSEDLQSLLLRVANAVSVKGIYKQMPGCFFFLRKKLFFKTSASRA	Decreased	much higher
F406T (protein) GFGDVGALESLRGNADLAYILSMEPCGHCLIINNVNFCRESGLRTRTGSNIDCEKLRRRFSSLHFMVEVKGDLTAKKMVLALLELARQDHGALDCCVVVILSHGCQASHLQFPGAVYGTDGCPVSVEKIVNIFNGTSCPSLGGKPKLFFIQACGGEQKDHGFEVASTSPEDESPGSNPEPDATPFQEGLRTFDQLDAISSLPTPSDIFVSYSTFPGFVSWRDPKSGSWYVETLDDIFEQWAHSEDLQSLLLRVANAVSVKGIYKQMPGCFNTLRKKLFFKTSASRA	Decreased	much higher

From patent publication US20210147507A1, “METHODS TO AUGMENT OR ALTER SIGNAL TRANSDUCTION” (Bellicum Pharmaceuticals, Inc., priority 2017, published 2021)
